Test results: US20130136748A1 (Ablynx, published 2013)

How the values were obtained:
[1] = target: T1, cHER3ECD (Maccaca fascicularis HER3 extracellular domain) (Macaca fascicularis, UniProt P21860 20-643 (human entry)); assay: ELISA, coated cHER3-ECD
T1 construct: also called cyno HER3ECD; cyno HER3-ECD
T1 chain: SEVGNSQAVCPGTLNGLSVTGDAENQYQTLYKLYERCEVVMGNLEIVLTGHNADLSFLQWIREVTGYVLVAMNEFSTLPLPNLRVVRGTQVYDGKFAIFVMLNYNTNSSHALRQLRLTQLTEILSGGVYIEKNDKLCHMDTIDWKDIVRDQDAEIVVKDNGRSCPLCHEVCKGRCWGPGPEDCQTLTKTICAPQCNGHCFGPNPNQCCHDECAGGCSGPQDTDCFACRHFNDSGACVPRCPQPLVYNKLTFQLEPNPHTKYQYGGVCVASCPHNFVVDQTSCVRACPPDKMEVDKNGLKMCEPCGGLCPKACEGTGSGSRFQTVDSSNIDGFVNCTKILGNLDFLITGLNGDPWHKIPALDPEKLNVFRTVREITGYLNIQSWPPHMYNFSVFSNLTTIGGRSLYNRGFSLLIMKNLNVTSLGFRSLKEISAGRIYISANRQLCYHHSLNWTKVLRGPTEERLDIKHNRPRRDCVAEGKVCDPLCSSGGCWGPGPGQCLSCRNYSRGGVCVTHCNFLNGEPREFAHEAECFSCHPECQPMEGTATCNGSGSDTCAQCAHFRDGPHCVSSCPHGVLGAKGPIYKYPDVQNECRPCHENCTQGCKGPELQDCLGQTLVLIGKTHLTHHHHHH

human HER2 [2] = target: T2, human HER2 (human, UniProt P04626 23-1255); assay: FACS, CHO-HER2
T2 construct: also called hHER2

[3] = target: T3, hHER3 ECD (human HER3 extracellular domain) (human, UniProt P21860 20-643); assay: ELISA, coated hHER3-ECD
T3 construct: also called recombinant HER3-ECD

hHER3 full length [4] = target: T4, hHER3 full length (human, UniProt P21860 20-1342); assay: FACS, 400 nM, competitor 21B02-biotin
T4 construct: On transfected CHO, CHO HER2/HER3, CHO EGFR/HER3 or CHO Flp-In cells; endogenous HER3 of MCF-7 and MDA-MB468 cells in the signalling assays; also called human HER3

human HER1 [5] = target: T5, human HER1 (human, UniProt P00533 25-1210); assay: FACS, CHO-HER1
T5 construct: also called EGFR; ErbB1

human HER4 [6] = target: T6, human HER4 (human, UniProt Q15303 26-1308); assay: FACS, CHO-HER4
T6 sequence (Q15303 26-1308 limits assumed): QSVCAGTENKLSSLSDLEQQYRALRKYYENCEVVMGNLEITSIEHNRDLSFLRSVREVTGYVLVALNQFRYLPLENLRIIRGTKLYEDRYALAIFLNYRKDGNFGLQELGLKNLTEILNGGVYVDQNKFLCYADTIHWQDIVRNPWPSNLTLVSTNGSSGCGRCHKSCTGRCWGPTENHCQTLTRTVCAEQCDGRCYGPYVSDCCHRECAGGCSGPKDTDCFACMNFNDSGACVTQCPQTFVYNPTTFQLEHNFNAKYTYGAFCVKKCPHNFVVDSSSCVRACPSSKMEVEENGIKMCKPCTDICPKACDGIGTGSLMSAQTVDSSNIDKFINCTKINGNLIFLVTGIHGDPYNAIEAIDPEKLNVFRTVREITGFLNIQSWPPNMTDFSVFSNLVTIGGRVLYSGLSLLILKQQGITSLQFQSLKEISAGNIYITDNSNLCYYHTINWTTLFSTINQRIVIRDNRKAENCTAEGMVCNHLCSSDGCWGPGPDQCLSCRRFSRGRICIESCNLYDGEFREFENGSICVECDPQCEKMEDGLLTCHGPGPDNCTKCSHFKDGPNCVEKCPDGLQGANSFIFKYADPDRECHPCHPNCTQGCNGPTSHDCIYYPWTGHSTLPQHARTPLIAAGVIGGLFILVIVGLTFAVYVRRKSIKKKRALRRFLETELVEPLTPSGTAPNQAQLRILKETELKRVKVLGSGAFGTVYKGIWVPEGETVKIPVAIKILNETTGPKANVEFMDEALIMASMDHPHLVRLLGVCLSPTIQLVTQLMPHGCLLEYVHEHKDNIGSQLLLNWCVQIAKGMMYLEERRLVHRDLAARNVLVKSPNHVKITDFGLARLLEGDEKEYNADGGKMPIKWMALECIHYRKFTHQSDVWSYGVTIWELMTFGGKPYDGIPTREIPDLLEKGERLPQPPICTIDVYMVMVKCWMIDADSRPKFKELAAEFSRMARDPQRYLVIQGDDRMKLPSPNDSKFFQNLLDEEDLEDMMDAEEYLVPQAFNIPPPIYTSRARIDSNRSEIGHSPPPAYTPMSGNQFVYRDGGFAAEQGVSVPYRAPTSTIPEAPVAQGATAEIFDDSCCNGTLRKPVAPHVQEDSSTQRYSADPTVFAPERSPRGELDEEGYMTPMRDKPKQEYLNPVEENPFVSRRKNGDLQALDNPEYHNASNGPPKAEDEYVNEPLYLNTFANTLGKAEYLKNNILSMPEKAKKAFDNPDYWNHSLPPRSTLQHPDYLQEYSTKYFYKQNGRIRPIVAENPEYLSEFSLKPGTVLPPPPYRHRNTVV

human HER2 [7] = target: T2, human HER2; assay: FACS CHO-HER2, 222 nM
human HER4 [8] = target: T6, human HER4; assay: FACS CHO-HER4, 222 nM
human HER2 [9] = target: T2, human HER2; assay: FACS CHO-HER2, 2000 nM
hHER3 full length [10] = target: T4, hHER3 full length; assay: cell-based or functional assay
human HER2 [11] = target: T2, human HER2; assay: FACS CHO-HER2, 667 nM
hHER3 full length [12] = target: T4, hHER3 full length; assay: FACS, 400 nM, competitor 04C07-biotin
human HER1 [13] = target: T5, human HER1; assay: FACS CHO-HER1, 2000 nM
hHER3 full length [14] = target: T4, hHER3 full length; assay: FACS, 400 nM, competitor 23F05-biotin
human HER1 [15] = target: T5, human HER1; assay: FACS CHO-HER1, 222 nM
hHER3 full length [16] = target: T4, hHER3 full length; assay: FACS, 400 nM, competitor 17C08-biotin
hHER3 full length [17] = target: T4, hHER3 full length; assay: cell-based or functional assay; remark: listed apart in the source
hHER3 full length [18] = target: T4, hHER3 full length; assay: FACS, 400 nM, competitor 18E08-biotin
human HER4 [19] = target: T6, human HER4; assay: FACS CHO-HER4, 2000 nM
human HER4 [20] = target: T6, human HER4; assay: FACS CHO-HER4, 667 nM
hHER3 full length [21] = target: T4, hHER3 full length; assay: FACS, 400 nM, competitor 04F10-biotin
human HER1 [22] = target: T5, human HER1; assay: FACS CHO-HER1, 667 nM

B1: 04C07 (VHH)
VHH: EVQLVESGGGLVQAGGSLRLSCAASGFTFSSYPMSWVRQAPGKGPAWVSTVSPGGITTSYADSVKGRFTISRDNAKNTLYLQMNSLKPEDTAVYYCLRDLNNRGQGTQVTVSS
notes: also called HER3MS04C07; HER3MS004C07
EC50 [1]: 0.93 nM | binding result (human HER2 [2]): no binding (tested: 2000 nM) | EC50 [3]: 0.86 nM | % competition (hHER3 full length [4]): 2% | binding result (human HER1 [5]): no binding (tested: 2000 nM) | binding result (human HER4 [6]): no binding (tested: 2000 nM) | MCF (human HER2 [7]): 84 | MCF (human HER4 [8]): 96 | MCF (human HER2 [9]): 154 | IC50, HRG1-β1 induced pAkt, MCF-7 (hHER3 full length [10]): 1.09e-08 M | IC50, HRG1-β1 induced pERK1/2, MCF-7 (hHER3 full length [10]): 2.79e-08 M | MCF (human HER2 [11]): 79 | % competition (hHER3 full length [12]): 100% | MCF (human HER1 [13]): 72 | % competition (hHER3 full length [14]): 0% | MCF (human HER1 [15]): 75 | % competition (hHER3 full length [16]): 15% | IC50, HRG1-β1 induced pHER3, MCF-7 (hHER3 full length [17]): 1.07e-09 M | IC50, HRG1-β1 induced pHER3, MDA-MB468 (hHER3 full length [17]): 6.68e-09 M | % competition (hHER3 full length [18]): 26% | MCF (human HER4 [19]): 105 | MCF (human HER4 [20]): 103 | % competition (hHER3 full length [21]): 0% | MCF (human HER1 [22]): 92

B2: 17C08 (VHH)
VHH: EVQLVESGGGLMQAGDSLRLSCAASGRAFSSYALGWFRRAPGKERECVAATDRLGDNTYFPDSVKGRFTISRDNAKNTLYLQMNNLKPEDTAVYYCAAGAVRYGVSTSPMNYNYWGQGTQVTVSS
notes: also called 17C8
EC50 [1]: 0.59 nM | binding result (human HER2 [2]): no binding (tested: 2000 nM) | EC50 [3]: 0.62 nM | % competition (hHER3 full length [4]): 16% | binding result (human HER1 [5]): no binding (tested: 2000 nM) | binding result (human HER4 [6]): no binding (tested: 2000 nM) | MCF (human HER2 [7]): 160 | MCF (human HER4 [8]): 210 | MCF (human HER2 [9]): 1220 | IC50, HRG1-β1 induced pAkt, MCF-7 (hHER3 full length [10]): 7.24e-07 M | inhibition of HRG1-β1 induced pERK1/2, MCF-7 (hHER3 full length [10]): < 50 % inhibition | MCF (human HER2 [11]): 418 | % competition (hHER3 full length [12]): 3% | MCF (human HER1 [13]): 58 | % competition (hHER3 full length [14]): 17% | MCF (human HER1 [15]): 62 | % competition (hHER3 full length [16]): 97% | IC50, HRG1-β1 induced pHER3, MCF-7 (hHER3 full length [17]): 8.98e-08 M | IC50, HRG1-β1 induced pHER3, MDA-MB468 (hHER3 full length [17]): 5.38e-08 M | % competition (hHER3 full length [18]): 98% | MCF (human HER4 [19]): 254 | MCF (human HER4 [20]): 91 | % competition (hHER3 full length [21]): 77% | MCF (human HER1 [22]): 47

B3: 18G11 (VHH)
VHH: EVQLVESGGGLVQPGGSLRLSCAASGTLFKINAMGWYRQAPGKRRELVALITSSDTTDYAESVEGRFTISRDNTWNAVYLQMNSLKPEDTAVYYCHSDHYSMGVPEKRVIMYGQGTQVTVSS
notes: c-myc, His6-tagged form as expressed; also called HER3MS18G11; HER3MS018G11
EC50 [1]: 0.64 nM | binding result (human HER2 [2]): no binding (tested: 2000 nM) | EC50 [3]: 0.72 nM | % competition (hHER3 full length [4]): 0% | binding result (human HER1 [5]): no binding (tested: 2000 nM) | binding result (human HER4 [6]): no binding (tested: 2000 nM) | MCF (human HER2 [7]): 109 | MCF (human HER4 [8]): 57 | MCF (human HER2 [9]): 65 | IC50, HRG1-β1 induced pAkt, MCF-7 (hHER3 full length [10]): 1.38e-07 M | inhibition of HRG1-β1 induced pERK1/2, MCF-7 (hHER3 full length [10]): < 50 % inhibition | MCF (human HER2 [11]): 117 | % competition (hHER3 full length [12]): 0% | MCF (human HER1 [13]): 97 | % competition (hHER3 full length [14]): 0% | MCF (human HER1 [15]): 101 | % competition (hHER3 full length [16]): 74% | IC50, HRG1-β1 induced pHER3, MCF-7 (hHER3 full length [17]): 1.03e-08 M | IC50, HRG1-β1 induced pHER3, MDA-MB468 (hHER3 full length [17]): 7.03e-09 M | % competition (hHER3 full length [18]): 97% | MCF (human HER4 [19]): 124 | MCF (human HER4 [20]): 56 | % competition (hHER3 full length [21]): 0% | MCF (human HER1 [22]): 87
